Data published in PMC6629125, “Lysyl oxidase–like 2 (LOXL2)–mediated cross-linking of tropoelastin” (The FASEB Journal, 2019).

Biological target: T1, full-length lysyl oxidase-like 2 (FL-LOXL2), recombinant human (human, UniProt Q9Y4K0 26-774)
T1 construct: Lysyl oxidase-like 2 (LOXL2), human, full-length cDNA in pcDNA3.1-myc-His, amplified from the start ATG; the protein was secreted by CHO cells; also called LOX-like 2; source: DHFR-deficient CHO cells, transfected, secreted into Opti-MEM; purified (HisTrap, gel filtration)
T1 sequence (looked up): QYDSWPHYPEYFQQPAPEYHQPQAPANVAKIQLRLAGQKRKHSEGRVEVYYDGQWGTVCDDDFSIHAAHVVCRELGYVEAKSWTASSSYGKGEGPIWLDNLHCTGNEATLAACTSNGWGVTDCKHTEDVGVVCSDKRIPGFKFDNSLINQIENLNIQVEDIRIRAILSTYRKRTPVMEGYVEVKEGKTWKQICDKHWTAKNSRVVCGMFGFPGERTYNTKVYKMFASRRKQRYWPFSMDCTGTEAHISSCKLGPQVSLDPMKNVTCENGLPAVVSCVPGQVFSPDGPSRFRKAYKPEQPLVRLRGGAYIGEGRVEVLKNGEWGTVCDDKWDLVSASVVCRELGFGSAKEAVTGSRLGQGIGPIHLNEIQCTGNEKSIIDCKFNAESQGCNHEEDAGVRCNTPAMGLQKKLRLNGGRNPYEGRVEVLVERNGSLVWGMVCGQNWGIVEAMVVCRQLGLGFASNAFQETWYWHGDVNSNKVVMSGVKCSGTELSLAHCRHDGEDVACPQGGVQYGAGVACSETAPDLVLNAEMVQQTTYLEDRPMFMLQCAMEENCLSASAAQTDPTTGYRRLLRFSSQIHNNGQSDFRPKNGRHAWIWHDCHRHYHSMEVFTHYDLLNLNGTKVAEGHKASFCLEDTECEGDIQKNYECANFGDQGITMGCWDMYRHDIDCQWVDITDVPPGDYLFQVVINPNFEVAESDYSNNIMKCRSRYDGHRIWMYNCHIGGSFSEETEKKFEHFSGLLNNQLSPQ
Assay: SPR; ProteOn XPR36; LOXL2 amine-coupled on a GLC chip; TE as analyte, serial 1:1 dilution from 830 nM; 10 mM Na-HEPES, 150 mM NaCl, 2 mM CaCl2, 0.05% Tween 20, pH 7.4, 25°C; steady-state analysis
Conditions: both partners purified

- Kd: 146 nM
B1: human tropoelastin, isoform 2 (natural protein, UniProt P15502-2 27-724, looked up)
chain: GGVPGAIPGGVPGGVFYPGAGLGALGGGALGPGGKPLKPVPGGLAGAGLGAGLGAFPAVTFPGALVPGGVADAAAAYKAAKAGAGLGGVPGVGGLGVSAGAVVPQPGAGVKPGKVPGVGLPGVYPGGVLPGARFPGVGVLPGVPTGAGVKPKAPGVGGAFAGIPGVGPFGGPQPGVPLGYPIKAPKLPGGYGLPYTTGKLPYGYGPGGVAGAAGKAGYPTGTGVGPQAAAAAAAKAAAKFGAGAAGVLPGVGGAGVPGVPGAIPGIGGIAGVGTPAAAAAAAAAAKAAKYGAAAGLVPGGPGFGPGVVGVPGAGVPGVGVPGAGIPVVPGAGIPGAAVPGVVSPEAAAKAAAKAAKYGARPGVGVGGIPTYGVGAGGFPGFGVGVGGIPGVAGVPGVGGVPGVGGVPGVGISPEAQAAAAAKAAKYGVGTPAAAAAKAAAKAAQFGLVPGVGVAPGVGVAPGVGVAPGVGLAPGVGVAPGVGVAPGVGVAPGIGPGGVAAAAKSAAKVAAKAQLRAAAGLGAGIPGLGVGVGVPGLGVGAGVPGLGVGAGVPGFGAVPGALAAAKAAKYGAAVPGVLGGLGALGGVGIPGGVVGAGPAAAAAAAKAAAKAAQFGLVGAAGLGGLGVGGLGVPGVGGLGGIPPAAAAKAAKYGAAGLGGVLGGAGQFPLGGVAARPGFGLSPIFPGGACLGKACGRKRK
notes: also called TE; source: E. coli, purified (acetone/buffer extraction, filtration, dialysis, freeze drying)
